US12201676B2, “Composition comprising diamine oxidase for use in the treatment or prevention of fibromyalgia or chronic fatigue syndrome” (DR HEALTHCARE ESPAÑA, S.L., priority 2011, dated 2025)

Experiments:
[1] = tested on: subjects diagnosed with chronic fatigue syndrome and with DAO deficit; test: Efficacy of DAO compositions in chronic fatigue syndrome, grades of improvement on the CLINIC scale; type: in vivo, human; details: chronic fatigue syndrome grades II, III and IV with DAO deficit, 4 mg DAO twice a day, count of 23 subjects
Experimental: Oral compositions containing DAO of the present invention were tested in a total of 46 subjects diagnosed with chronic fatigue syndrome, as out-patients.
To evaluate the degree of affectation of chronic fatigue syndrome in candidate study subjects, the quality of life of these subjects was evaluated using a simple scale of 4 successive grades (I, II, III and IV), with criteria used in the clinic. This scale is used in the Chronic Fatigue Syndrome (CFS) Functional Unit in the Hospital Clinic.
The CLINIC scale consists of dividing the patients with chronic fatigue syndrome into four different grades of functional affectation depending on the effect of their fatigue on quality of life:
GRADE I: the patient is sometimes or occasionally fatigued, without significant limitation (<50%) of work or daily life activities.
GRADE II: persistent presence of fatigue, oscillating but without improvement, with marked effect (>50%) on work and also daily life activities.
GRADE IV: extreme fatigue that requires the help of other people for basic personal activities and that makes autonomy and the activities of daily life impossible.
Improvement is evaluated when the patient passes from a higher to a lower grade in terms of the number of improvement grades.

[2] = tested on: histamine level in blood; test: Histamine level in blood of chronic fatigue syndrome subjects; type: in vivo, human; details: 4 mg DAO twice a day

B1: diamine oxidase (protein, UniProt P19801 20-751, looked up)
Diamine oxidase …: EPSPGTLPRKAGVFSDLSNQELKAVHSFLWSKKELRLQPSSTTTMAKNTVFLIEMLLPKKYHVLRFLDKGERHPVREARAVIFFGDQEHPNVTEFAVGPLPGPCYMRALSPRPGYQSSWASRPISTAEYALLYHTLQEATKPLHQFFLNTTGFSFQDCHDRCLAFTDVAPRGVASGQRRSWLIIQRYVEGYFLHPTGLELLVDHGSTDAGHWAVEQVWYNGKFYGSPEELARKYADGEVDVVVLEDPLPGGKGHDSTEEPPLFSSHKPRGDFPSPIHVSGPRLVQPHGPRFRLEGNAVLYGGWSFAFRLRSSSGLQVLNVHFGGERIAYEVSVQEAVALYGGHTPAGMQTKYLDVGWGLGSVTHELAPGIDCPETATFLDTFHYYDADDPVHYPRALCLFEMPTGVPLRRHFNSNFKGGFNFYAGLKGQVLVLRTTSTVYNYDYIWDFIFYPNGVMEAKMHATGYVHATFYTPEGLRHGTRLHTHLIGNIHTHLVHYRVDLDVAGTKNSFQTLQMKLENITNPWSPRHRVVQPTLEQTQYSWERQAAFRFKRKLPKYLLFTSPQENPWGHKRTYRLQIHSMADQVLPPGWQEEQAITWARYPLAVTKYRESELCSSSIYHQNDPWHPPVVFEQFLHNNENIENEDLVAWVTVGFLHIPHSEDIPNTATPGNSVGFLLRPFNFFPEDPSLASRDTVIVWPRDNGPNYVQRWIPEDRDCSMPPPFSYNGTYRPV
notes: Enzyme diamine oxidase
Number of grades of improvement: 1 (subjects) [1]: 16 of 23
Number of grades of improvement: 2 (subjects) [1]: 4 of 23
Histamine level in blood [2]: 2-20 micrograms/0.1 L
